Assay results: the supplement of paper PMC10724198
± gives the standard deviation of the averaged measurements.

These sequences were tested on Saccharomyces cerevisiae (assay: protein stability index of tFT-peptide fusion (C-terminal peptide) (PSI (0-1 scale)); higher = more stable (slower turnover)). Conditions: genetic background: wild type; temperature: 30 C.
Method: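 Multiplexed protein stability (MPS) profiling in S. cerevisiae. Random 12-aa peptides (tFT-X12 library) are fused to the C-terminus of a sfGFP-mCherry tandem fluorescent timer, after mCherry and a GGGS linker. Cells are FACS-sorted into 8 mCherry/sfGFP bins and deep-sequenced. The protein stability index (PSI) is the read-weighted bin average, scaled from 0 (unstable) to 1 (stable). Only peptides with >10 reads are reported; cells were grown at 30 °C in SC-His with glucose.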
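Note: PSI is a weighted mean of sequencing reads over stability bins, variants kept only with over 10 reads, mCherry proximal and sfGFP distal, peptide attached via GGGS linker.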

Row | Sequence | protein stability index
1 | SWGEVRRRGCSV | 0.637 ± 0.0065
2 | EKRERKRDSGHR | 0.685 ± 0.063
3 | LGGLYGTAMSCT | 0.683 ± 0.023
4 | LSLPPHASPTPS | 0.735 ± 0.055
5 | VPFYHIFPPFRP | 0.777 ± 0.088
6 | GGFGAVPEVRAR | 0.725 ± 0.035
7 | PPRHTPFSLPPF | 0.651 ± 0.074
8 | SGRGLPLGGAFD | 0.727 ± 0.026
9 | VSWVYNFKKIRS | 0.694 ± 0.078
10 | QKKKRTKNKNKR | 0.6556 ± 0.0053
11 | VWGGLAVVTGWA | 0.612 ± 0.073
12 | AWVCRLDGPVGG | 0.634 ± 0.04
13 | YVSNKMHGSLLS | 0.691 ± 0.03
14 | LWGPGGVWGRGR | 0.697 ± 0.05
15 | SIEEKRNKIDKI | 0.769 ± 0.2
16 | GIVVEELIFCGR | 0.63 ± 0.0087
17 | PIQNHRFLPIVL | 0.713 ± 0.036
18 | RTTERLTRWEFG | 0.686 ± 0.03
19 | VLGGSGFAGSPS | 0.659 ± 0.014
20 | IYHCRKSYKTRQ | 0.7205 ± 0.0042
21 | RCRGSSWLLLCA | 0.518 ± 0.016
22 | TYSPPSPTPPAR | 0.656 ± 0.055
23 | SDNIKIPKEKRK | 0.668 ± 0.026
24 | SPPPPLHPALPA | 0.656 ± 0.083
25 | WFLCWGWGCGGA | 0.673 ± 0.08

Row | Sequence | protein stability index
26 | FPSPSLSSLPPL | 0.725 ± 0.058
27 | AHPPLLPPLLPS | 0.639 ± 0.015
28 | RTWLLRTVFPRL | 0.704 ± 0.024
29 | GFGSTTTRLALV | 0.662 ± 0.13
30 | GTQPAAGNTPWA | 0.703 ± 0.029
31 | ASLPDHYPGPKI | 0.759 ± 0.27
32 | YTESQVCLLSAY | 0.509 ± 0.0088
33 | APPSPPSPPGLP | 0.672 ± 0.033
34 | APPPPARDLPPR | 0.721 ± 0.017
35 | HRIHRSLLTGGR | 0.708 ± 0.021
36 | NGVLRPMATGAP | 0.666 ± 0.039
37 | SGVIRLRAVELF | 0.5726 ± 0.0017
38 | VVWRCCGRGAEG | 0.6457 ± 0.0016
39 | CSVFFFMGFLFA | 0.511 ± 0.13
40 | PSPPPPAPPPPP | 0.666 ± 0.013
41 | PPIPPALLLVSP | 0.633 ± 0.0095
42 | YRRGLGEYRTRS | 0.688 ± 0.059
43 | VFLLCSLPTFWR | 0.662 ± 0.062
44 | TVLHLCMMTFLI | 0.576 ± 0.0084
45 | GGAEGLHVRDVV | 0.722 ± 0.051
46 | ISGEISTLLKTR | 0.71 ± 0.081
47 | LPLLSSLLALLY | 0.647 ± 0.042
48 | KTTRTGRHTAPN | 0.676 ± 0.028
49 | GFIYRLCRISIP | 0.635 ± 0.025
50 | RRGKGERSQFAP | 0.647 ± 0.017

Row | Sequence | protein stability index
51 | PTRPSHTALPSA | 0.664 ± 0.023
52 | LQIFRSRCFGGL | 0.722 ± 0.13
53 | GGPVGGGGGSGE | 0.641 ± 0.032
54 | RVAWAGGGAAGS | 0.667 ± 0.065
55 | KKNCRKNQKEET | 0.663 ± 0.067
56 | LLSRLLLAPSSL | 0.65 ± 0.019
57 | VDYARECALIGG | 0.782 ± 0.11
58 | DMPIVVDGSLVR | 0.684 ± 0.027
59 | HFWGCCRRRCLK | 0.66 ± 0.051
60 | GWCGGLWRFGWG | 0.723 ± 0.092
61 | PPPALLAPPLPF | 0.756 ± 0.096
62 | ICIKKNTLTKTE | 0.669 ± 0.012
63 | TCSSQMSSNFRF | 0.638 ± 0.033
64 | SSASPVPVLPLT | 0.7 ± 0.018
65 | PRSLPAGHPSRG | 0.692 ± 0.028
66 | GWGIFRISSFGT | 0.713 ± 0.018
67 | NGAGRGMVGGCG | 0.666 ± 0.079
68 | VPPASLVCLTSP | 0.667 ± 0.0015
69 | NKNKKKKEKKSR | 0.725 ± 0.12
70 | IMGGGGEGGINC | 0.698 ± 0.019
71 | GRRDARTEDVRE | 0.688 ± 0.0049
72 | CFGVSVYIGLGV | 0.588 ± 0.011
73 | GVGGEGRNDALI | 0.635 ± 0.037
74 | DCVSLFRVPRVA | 0.612 ± 0.028
75 | LIRLLPPPPAVF | 0.487 ± 0.068

Row | Sequence | protein stability index
76 | PAPPAPTHAPPL | 0.683 ± 0.11
77 | SPSPPPRRYLPL | 0.757 ± 0.073
78 | MLPTPSPPRPPF | 0.698 ± 0.021
79 | RAAIPAHPFVSR | 0.676 ± 0.027
80 | DAPLGDLRAYTT | 0.747 ± 0.028
81 | EKGSIYVVQYGK | 0.683 ± 0.022
82 | KKKKKKKKKNEK | 0.755 ± 0.024
83 | CAVPTCSRVPIV | 0.601 ± 0.078
84 | LPRREQILRKGS | 0.71 ± 0.023
85 | LRRLSSIGWSRI | 0.754 ± 0.14
86 | LPPDSLRPPGPP | 0.761 ± 0.017
87 | GAQSRQMRSLAQ | 0.65 ± 0.11
88 | FRELIRPSKENR | 0.664 ± 0.025
89 | PSPPPLLPRPHL | 0.714 ± 0.1
90 | GASDWVMLYWVV | 0.584 ± 0.0098
91 | RNRYCNLRVGFD | 0.679 ± 0.011
92 | EKGKGREIKKGE | 0.646 ± 0.048
93 | PASEVLFMEFVT | 0.753 ± 0.026
94 | LGGGNVGHSRIW | 0.623 ± 0.073
95 | LGRGGGGPLSGG | 0.717 ± 0.041
96 | SLRESTPFCSRP | 0.553 ± 0.18
97 | FVNKRRGCRELE | 0.701 ± 0.0053
98 | PPPSSPPPPAPL | 0.694 ± 0.035
